PMC4538830

Target: T1, full-length recombinant His tagged CTNNBL1 (human), Q8WYA6
T1 chain: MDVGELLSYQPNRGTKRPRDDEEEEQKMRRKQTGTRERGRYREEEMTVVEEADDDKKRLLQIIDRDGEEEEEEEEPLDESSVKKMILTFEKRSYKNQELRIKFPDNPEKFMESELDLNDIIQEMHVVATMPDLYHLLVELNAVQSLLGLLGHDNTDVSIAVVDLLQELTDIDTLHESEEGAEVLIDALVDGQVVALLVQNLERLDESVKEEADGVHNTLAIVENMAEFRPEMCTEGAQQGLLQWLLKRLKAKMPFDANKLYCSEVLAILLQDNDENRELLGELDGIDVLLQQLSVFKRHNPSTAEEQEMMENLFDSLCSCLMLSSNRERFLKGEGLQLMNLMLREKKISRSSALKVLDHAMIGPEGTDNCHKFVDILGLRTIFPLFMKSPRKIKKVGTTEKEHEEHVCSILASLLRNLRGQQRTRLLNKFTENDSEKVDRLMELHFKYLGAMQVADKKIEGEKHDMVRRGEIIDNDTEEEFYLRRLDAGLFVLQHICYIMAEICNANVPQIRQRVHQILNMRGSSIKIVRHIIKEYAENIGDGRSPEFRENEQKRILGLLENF
Test: SEC-MALS; CTNNBL1 (full length or [77–563]) alone; also in high salt buffer (0.5 M NaCl) or with CWC15[80–229] added; Supplementary Figure S7
Details: remark: other sources report otherwise

B1: full-length recombinant His tagged CTNNBL1, Q8WYA6 1-563 (natural protein)
chain: MDVGELLSYQPNRGTKRPRDDEEEEQKMRRKQTGTRERGRYREEEMTVVEEADDDKKRLLQIIDRDGEEEEEEEEPLDESSVKKMILTFEKRSYKNQELRIKFPDNPEKFMESELDLNDIIQEMHVVATMPDLYHLLVELNAVQSLLGLLGHDNTDVSIAVVDLLQELTDIDTLHESEEGAEVLIDALVDGQVVALLVQNLERLDESVKEEADGVHNTLAIVENMAEFRPEMCTEGAQQGLLQWLLKRLKAKMPFDANKLYCSEVLAILLQDNDENRELLGELDGIDVLLQQLSVFKRHNPSTAEEQEMMENLFDSLCSCLMLSSNRERFLKGEGLQLMNLMLREKKISRSSALKVLDHAMIGPEGTDNCHKFVDILGLRTIFPLFMKSPRKIKKVGTTEKEHEEHVCSILASLLRNLRGQQRTRLLNKFTENDSEKVDRLMELHFKYLGAMQVADKKIEGEKHDMVRRGEIIDNDTEEEFYLRRLDAGLFVLQHICYIMAEICNANVPQIRQRVHQILNMRGSSIKIVRHIIKEYAENIGDGRSPEFRENEQKRILGLLENF
stoichiometry N: 3
